Earlier results, collected in PMC4501269 (Biochemistry, 2011).
pKd: −log10 of the molar value. Like-named read-outs stand apart in the source and are kept apart here. Each block holds one molecule with its values, some of them ahead of it.

Key:
SRC-1 (Homo sapiens) [1] = target: SRC-1 (Homo sapiens) (UniProt Q15788); assay: fluorescence polarization
SRC-2 (Homo sapiens) [2] = target: SRC-2 (Homo sapiens) (UniProt Q15596); assay: fluorescence cross-correlation spectroscopy
SRC-2 (Homo sapiens) [3] = target: SRC-2 (Homo sapiens) (UniProt Q15596); assay: fluorescence cross-correlation spectroscopy; remark: listed apart in the source
SRC-2 (Homo sapiens) [4] = target: SRC-2 (Homo sapiens) (UniProt Q15596); assay: fluorescence cross-correlation spectroscopy; remark: listed apart in the source
SRC-1 (Homo sapiens) [5] = target: SRC-1 (Homo sapiens) (UniProt Q15788)
SRC-1 (Homo sapiens) [6] = target: SRC-1 (Homo sapiens) (UniProt Q15788); remark: listed apart in the source

Sequence of estrogen receptor (P03372 whole entry): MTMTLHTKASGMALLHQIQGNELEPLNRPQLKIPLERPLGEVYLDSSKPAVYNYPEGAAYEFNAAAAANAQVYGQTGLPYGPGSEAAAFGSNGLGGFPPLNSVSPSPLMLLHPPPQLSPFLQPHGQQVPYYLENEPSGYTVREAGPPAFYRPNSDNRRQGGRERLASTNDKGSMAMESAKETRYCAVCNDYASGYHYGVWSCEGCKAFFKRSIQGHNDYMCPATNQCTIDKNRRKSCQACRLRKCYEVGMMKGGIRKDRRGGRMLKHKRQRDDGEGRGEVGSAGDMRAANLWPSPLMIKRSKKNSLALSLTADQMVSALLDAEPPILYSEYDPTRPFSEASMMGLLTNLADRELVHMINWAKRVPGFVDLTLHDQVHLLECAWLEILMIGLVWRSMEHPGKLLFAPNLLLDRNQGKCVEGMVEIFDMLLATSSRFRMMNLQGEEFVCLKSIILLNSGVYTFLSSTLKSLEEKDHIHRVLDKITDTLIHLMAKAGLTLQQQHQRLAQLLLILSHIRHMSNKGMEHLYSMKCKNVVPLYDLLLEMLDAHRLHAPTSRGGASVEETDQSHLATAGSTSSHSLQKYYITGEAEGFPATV
Sequence of SRC-1 (Homo sapiens) (Q15788 2-1441): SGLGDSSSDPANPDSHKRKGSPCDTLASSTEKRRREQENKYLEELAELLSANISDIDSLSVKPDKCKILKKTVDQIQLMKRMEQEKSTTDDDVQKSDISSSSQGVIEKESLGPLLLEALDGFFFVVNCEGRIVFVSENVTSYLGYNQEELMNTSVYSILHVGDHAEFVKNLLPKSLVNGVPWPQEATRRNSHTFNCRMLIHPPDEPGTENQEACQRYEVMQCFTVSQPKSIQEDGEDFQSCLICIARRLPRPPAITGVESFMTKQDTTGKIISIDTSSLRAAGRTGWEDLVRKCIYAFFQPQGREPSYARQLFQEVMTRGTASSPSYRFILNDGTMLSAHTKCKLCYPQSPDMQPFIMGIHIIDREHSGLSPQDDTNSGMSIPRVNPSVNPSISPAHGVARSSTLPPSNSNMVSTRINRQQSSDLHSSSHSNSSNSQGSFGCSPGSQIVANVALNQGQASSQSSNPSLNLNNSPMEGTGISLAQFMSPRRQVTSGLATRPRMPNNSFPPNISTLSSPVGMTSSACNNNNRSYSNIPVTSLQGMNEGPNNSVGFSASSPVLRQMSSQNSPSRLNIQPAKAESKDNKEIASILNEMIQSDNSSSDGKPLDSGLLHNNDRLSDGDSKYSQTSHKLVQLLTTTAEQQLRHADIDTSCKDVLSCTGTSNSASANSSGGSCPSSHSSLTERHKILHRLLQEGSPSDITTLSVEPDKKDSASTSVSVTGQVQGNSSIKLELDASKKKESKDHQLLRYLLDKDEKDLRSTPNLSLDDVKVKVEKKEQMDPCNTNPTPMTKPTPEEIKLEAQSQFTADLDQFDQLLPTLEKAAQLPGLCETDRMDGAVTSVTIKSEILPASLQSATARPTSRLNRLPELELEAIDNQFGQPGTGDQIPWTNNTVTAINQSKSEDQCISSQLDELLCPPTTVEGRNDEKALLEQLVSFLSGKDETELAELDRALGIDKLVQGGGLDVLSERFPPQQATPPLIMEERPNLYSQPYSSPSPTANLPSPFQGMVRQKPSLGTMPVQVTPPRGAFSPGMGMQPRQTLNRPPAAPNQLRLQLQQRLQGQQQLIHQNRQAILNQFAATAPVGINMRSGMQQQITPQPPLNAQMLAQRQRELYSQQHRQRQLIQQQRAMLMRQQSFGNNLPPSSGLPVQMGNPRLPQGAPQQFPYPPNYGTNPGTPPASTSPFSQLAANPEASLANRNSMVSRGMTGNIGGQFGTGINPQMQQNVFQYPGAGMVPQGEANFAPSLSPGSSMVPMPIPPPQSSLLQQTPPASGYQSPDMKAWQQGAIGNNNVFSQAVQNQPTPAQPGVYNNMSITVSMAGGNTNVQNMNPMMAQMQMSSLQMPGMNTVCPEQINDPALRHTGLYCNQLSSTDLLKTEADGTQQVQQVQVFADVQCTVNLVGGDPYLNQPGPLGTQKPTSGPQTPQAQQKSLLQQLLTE
Sequence of SRC-2 (Homo sapiens) (Q15596 2-1464): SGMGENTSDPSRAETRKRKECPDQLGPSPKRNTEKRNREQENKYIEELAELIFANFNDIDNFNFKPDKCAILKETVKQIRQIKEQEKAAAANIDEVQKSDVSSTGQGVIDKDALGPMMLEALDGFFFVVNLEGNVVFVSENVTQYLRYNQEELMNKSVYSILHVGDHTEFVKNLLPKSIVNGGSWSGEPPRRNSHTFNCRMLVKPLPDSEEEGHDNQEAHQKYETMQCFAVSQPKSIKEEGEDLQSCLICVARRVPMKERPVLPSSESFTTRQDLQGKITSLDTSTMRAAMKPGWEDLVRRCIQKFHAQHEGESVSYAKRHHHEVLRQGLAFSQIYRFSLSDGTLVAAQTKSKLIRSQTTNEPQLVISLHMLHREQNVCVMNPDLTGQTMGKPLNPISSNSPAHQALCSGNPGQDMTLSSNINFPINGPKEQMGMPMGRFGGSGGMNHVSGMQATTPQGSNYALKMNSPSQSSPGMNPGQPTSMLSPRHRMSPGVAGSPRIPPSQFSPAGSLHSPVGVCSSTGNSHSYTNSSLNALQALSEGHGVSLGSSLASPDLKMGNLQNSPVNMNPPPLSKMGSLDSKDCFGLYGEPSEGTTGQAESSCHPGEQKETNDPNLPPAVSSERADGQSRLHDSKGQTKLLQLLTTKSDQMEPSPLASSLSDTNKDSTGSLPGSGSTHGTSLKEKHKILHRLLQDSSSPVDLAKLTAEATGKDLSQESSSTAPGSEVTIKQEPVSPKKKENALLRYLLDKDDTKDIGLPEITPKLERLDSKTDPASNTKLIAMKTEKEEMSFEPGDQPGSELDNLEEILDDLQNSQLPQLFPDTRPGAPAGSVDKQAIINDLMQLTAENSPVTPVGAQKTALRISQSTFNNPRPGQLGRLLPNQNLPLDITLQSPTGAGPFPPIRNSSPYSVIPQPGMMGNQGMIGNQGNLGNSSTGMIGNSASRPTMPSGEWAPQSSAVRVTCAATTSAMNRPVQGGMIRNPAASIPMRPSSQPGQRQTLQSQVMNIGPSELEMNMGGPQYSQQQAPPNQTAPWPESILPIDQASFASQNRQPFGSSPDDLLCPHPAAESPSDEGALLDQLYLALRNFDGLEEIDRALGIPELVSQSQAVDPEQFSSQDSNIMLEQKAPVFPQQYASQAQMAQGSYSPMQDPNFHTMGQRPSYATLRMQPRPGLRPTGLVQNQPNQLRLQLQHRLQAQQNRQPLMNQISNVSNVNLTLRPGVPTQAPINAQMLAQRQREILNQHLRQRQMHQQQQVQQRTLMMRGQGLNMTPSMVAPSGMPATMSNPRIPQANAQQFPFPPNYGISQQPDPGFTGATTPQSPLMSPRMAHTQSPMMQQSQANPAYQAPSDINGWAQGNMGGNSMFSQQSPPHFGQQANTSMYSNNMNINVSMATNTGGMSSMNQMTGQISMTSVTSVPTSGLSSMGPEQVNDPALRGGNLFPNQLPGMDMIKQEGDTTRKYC
Sequence of PPARγ (from UniProt P37231) (P37231 whole entry): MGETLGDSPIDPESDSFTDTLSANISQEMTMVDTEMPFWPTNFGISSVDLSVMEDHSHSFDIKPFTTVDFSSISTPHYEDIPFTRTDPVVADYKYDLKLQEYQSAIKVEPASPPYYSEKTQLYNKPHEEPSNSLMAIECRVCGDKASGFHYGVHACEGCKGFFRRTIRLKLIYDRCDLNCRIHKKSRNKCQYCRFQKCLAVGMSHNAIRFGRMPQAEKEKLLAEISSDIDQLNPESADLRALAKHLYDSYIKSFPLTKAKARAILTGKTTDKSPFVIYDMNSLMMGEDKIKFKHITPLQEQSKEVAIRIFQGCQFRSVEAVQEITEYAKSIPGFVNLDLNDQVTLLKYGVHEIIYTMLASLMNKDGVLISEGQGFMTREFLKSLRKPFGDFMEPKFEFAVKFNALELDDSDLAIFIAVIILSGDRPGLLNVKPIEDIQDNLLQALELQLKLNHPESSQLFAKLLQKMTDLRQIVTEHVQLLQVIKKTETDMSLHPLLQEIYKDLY
Sequence of estrogen receptor LBD (P03372 311-547): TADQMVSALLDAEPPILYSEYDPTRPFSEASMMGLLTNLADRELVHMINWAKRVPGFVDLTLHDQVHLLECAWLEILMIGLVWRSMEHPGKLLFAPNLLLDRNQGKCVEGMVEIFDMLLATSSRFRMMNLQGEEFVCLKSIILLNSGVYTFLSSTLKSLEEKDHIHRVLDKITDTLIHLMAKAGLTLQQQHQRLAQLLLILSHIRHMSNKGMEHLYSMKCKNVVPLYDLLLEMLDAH

pKd (SRC-1 (Homo sapiens) [1]): 7.52 | pKd (SRC-2 (Homo sapiens) [2]): > 8.22 | pKd (SRC-2 (Homo sapiens) [3]): < 5.52 | pKd (SRC-2 (Homo sapiens) [4]): 6.70
Molecule: estrogen receptor (from UniProt P03372)

pKd (SRC-1 (Homo sapiens) [1]): 7.52
Molecule: estrogen receptor LBD (from UniProt P03372)

Molecule: COc1ccc2c(c1)c(CC(=O)O)c(C)n2C(=O)c1ccc(Cl)cc1 [IDM, indomethacin]
increase in the affinity of PPARγ for SRC-1 (PPARγ): 30 fold

pKd (SRC-1 (Homo sapiens) [5]): 6.02 | pKd (SRC-1 (Homo sapiens) [6]): 4.47
Molecule: PPARγ (from UniProt P37231)
